According to patent US20080260748A1:

Target: desmocollin 2 (DSC2) (human) (UniProt Q02487)
Experiment: flow cytometry on NCI-H358 cells, control human IgG

B1: anti-DSC2 human antibody 332 (antibody, V domains shown)
VH: QVQLQQWGAGLLKPSETLSLTCAVYGGSFSGNYWSWIRQPPGKGLEWIGEINHSGNTKYNPSLKSRVAISADTSKNQFSLKLSSVTAADTAVYYCARVPFDWFHPPGEPPFYYYYGMDVWGQGTTVTVSS
VL: HVILTQPPSVSGAPGQRVTISCTGSSSNIGAGYDVHWYQQLPGTAPKLLIYGNSNRPSGVPDRFSGSKSGTSASLAITGLQAEDEADYYCQSYDSSLSGWVFGGGTKLTVPG
- MFI (ratio of intensity to control IgG): 9.48
